Test results: article PMC9414842

Target: human large conductance voltage- and calcium-activated potassium channel (hBK) (human) (UniProt Q12791)
Experiment: cryo-EM structure; random spherically constrained (RSC) single-particle cryo-EM of hBK reconstituted into POPC liposomes, without Ca2+ (20 mM HEPES pH 7.4, 150 mM KCl, 2 mM EDTA); map with C2 symmetry at 3.48 Å

human large conductance voltage- and calcium-activated potassium channel (hBK), Q12791 1-1236 (natural protein; other documents disagree on this pair), sequence (Q12791 whole entry): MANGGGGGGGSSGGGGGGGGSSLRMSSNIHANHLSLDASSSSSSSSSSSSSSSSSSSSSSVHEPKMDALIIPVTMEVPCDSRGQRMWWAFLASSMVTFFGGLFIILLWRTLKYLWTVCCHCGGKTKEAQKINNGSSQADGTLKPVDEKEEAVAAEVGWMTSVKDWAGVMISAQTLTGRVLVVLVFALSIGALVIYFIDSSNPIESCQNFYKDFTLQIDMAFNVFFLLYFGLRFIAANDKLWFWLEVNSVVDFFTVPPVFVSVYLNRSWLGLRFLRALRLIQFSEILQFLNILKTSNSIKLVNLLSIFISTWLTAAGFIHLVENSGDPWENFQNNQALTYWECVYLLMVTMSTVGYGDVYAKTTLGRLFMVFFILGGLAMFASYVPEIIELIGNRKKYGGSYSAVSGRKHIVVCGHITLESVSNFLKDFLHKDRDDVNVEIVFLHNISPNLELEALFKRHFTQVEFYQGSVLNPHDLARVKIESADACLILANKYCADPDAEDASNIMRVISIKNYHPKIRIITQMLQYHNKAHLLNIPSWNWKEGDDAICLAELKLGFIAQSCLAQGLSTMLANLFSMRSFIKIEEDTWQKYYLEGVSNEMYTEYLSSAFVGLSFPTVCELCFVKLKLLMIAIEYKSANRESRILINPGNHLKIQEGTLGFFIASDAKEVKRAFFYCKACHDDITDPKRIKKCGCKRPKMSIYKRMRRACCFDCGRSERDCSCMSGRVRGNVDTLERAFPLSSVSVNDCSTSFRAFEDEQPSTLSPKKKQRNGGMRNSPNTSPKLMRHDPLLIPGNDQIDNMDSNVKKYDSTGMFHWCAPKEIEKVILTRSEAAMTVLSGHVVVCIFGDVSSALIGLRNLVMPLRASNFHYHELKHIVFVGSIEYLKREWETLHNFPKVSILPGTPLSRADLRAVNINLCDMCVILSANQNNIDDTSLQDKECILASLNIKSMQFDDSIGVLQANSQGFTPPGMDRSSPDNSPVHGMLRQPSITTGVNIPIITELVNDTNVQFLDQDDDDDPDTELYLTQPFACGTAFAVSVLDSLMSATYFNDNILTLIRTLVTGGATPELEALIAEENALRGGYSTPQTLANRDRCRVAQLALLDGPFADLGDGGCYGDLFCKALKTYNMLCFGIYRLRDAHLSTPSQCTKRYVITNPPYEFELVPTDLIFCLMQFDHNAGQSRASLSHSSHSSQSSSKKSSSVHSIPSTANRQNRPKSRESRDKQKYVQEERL

stoichiometry N: 4
Substance: human large conductance voltage- and calcium-activated potassium channel (hBK), Q12791 1-1236 (natural protein; other documents disagree on this pair)
